Results reported in the supplement of paper PMC9112550, “Optimization of the antimicrobial peptide Bac7 by deep mutational scanning” (BMC Biology, 2022).

Test system: Escherichia coli TOP10
Test: shrunken log2 fold change of peptide-encoding DNA abundance (4.5 h post-induction vs induction); higher = less antimicrobial activity (less host growth inhibition)
Conditions: time post-induction: 4.5 h; library: site-saturation at positions 5, 18, 19, 20
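Also: peptides expressed intracellularly from a pBAD plasmid library in pooled LB shake-flask culture, induced with 0.3% L-arabinose, DNA abundance read by NGS, three biological replicates, DESeq2 with apeglm shrinkage.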

Sequence: RRIRHRPPRLPRPRPRPQNHPRP
- shrunken log2 fold change: -0.922

Sequence: RRIRRRPPRLPRPRPRPAYDPRP
- shrunken log2 fold change: 0.0406

Sequence: RRIRLRPPRLPRPRPRPTYPPRP
- shrunken log2 fold change: 0.0515

Sequence: RRIRDRPPRLPRPRPRPNNVPRP
- shrunken log2 fold change: -0.243

Sequence: RRIRRRPPRLPRPRPRPDPDPRP
- shrunken log2 fold change: -0.0342

Sequence: RRIRLRPPRLPRPRPRPGFIPRP
- shrunken log2 fold change: 0.452

Sequence: RRIRCRPPRLPRPRPRPQEDPRP
- shrunken log2 fold change: -0.0835

Sequence: RRIRLRPPRLPRPRPRPVSPPRP
- shrunken log2 fold change: -0.00493

Sequence: RRIRQRPPRLPRPRPRPLLPPRP
- shrunken log2 fold change: 0.0127

Sequence: RRIRTRPPRLPRPRPRPMAVPRP
- shrunken log2 fold change: -0.296

Sequence: RRIRFRPPRLPRPRPRPCWHPRP
- shrunken log2 fold change: -0.259

Sequence: RRIRARPPRLPRPRPRPLMVPRP
- shrunken log2 fold change: 0.0926

Sequence: RRIRHRPPRLPRPRPRPHYKPRP
- shrunken log2 fold change: -0.973

Sequence: RRIRQRPPRLPRPRPRPGCWPRP
- shrunken log2 fold change: 0.548

Sequence: RRIRFRPPRLPRPRPRPFKSPRP
- shrunken log2 fold change: 0.0901

Sequence: RRIRIRPPRLPRPRPRPMPYPRP
- shrunken log2 fold change: -0.0219

Sequence: RRIRDRPPRLPRPRPRPCQSPRP
- shrunken log2 fold change: -0.121

Sequence: RRIRMRPPRLPRPRPRPSDCPRP
- shrunken log2 fold change: 0.206

Sequence: RRIRPRPPRLPRPRPRPIIVPRP
- shrunken log2 fold change: -0.178

Sequence: RRIRRRPPRLPRPRPRPVMTPRP
- shrunken log2 fold change: 0.573

Sequence: RRIRKRPPRLPRPRPRPFTCPRP
- shrunken log2 fold change: 0.182

Sequence: RRIRVRPPRLPRPRPRPELDPRP
- shrunken log2 fold change: 0.183

Sequence: RRIRLRPPRLPRPRPRPDPHPRP
- shrunken log2 fold change: -0.171

Sequence: RRIRFRPPRLPRPRPRPCGVPRP
- shrunken log2 fold change: 0.0327

Sequence: RRIRSRPPRLPRPRPRPWEFPRP
- shrunken log2 fold change: 0.236

Sequence: RRIRGRPPRLPRPRPRPPCVPRP
- shrunken log2 fold change: 1.15

Sequence: RRIRDRPPRLPRPRPRPAFFPRP
- shrunken log2 fold change: 0.342

Sequence: RRIRSRPPRLPRPRPRPKQPPRP
- shrunken log2 fold change: 0.0683

Sequence: RRIRSRPPRLPRPRPRPRHEPRP
- shrunken log2 fold change: -0.0516

Sequence: RRIRVRPPRLPRPRPRPWACPRP
- shrunken log2 fold change: -0.191

Sequence: RRIRHRPPRLPRPRPRPEAKPRP
- shrunken log2 fold change: -0.0228

Sequence: RRIRPRPPRLPRPRPRPQYRPRP
- shrunken log2 fold change: -0.105

Sequence: RRIRGRPPRLPRPRPRPCQRPRP
- shrunken log2 fold change: 0.014

Sequence: RRIRIRPPRLPRPRPRPIIHPRP
- shrunken log2 fold change: -0.667

Sequence: RRIRMRPPRLPRPRPRPMKYPRP
- shrunken log2 fold change: 0.0979

Sequence: RRIRSRPPRLPRPRPRPFTVPRP
- shrunken log2 fold change: -0.0157

Sequence: RRIRCRPPRLPRPRPRPFFHPRP
- shrunken log2 fold change: -0.364

Sequence: RRIRQRPPRLPRPRPRPLAFPRP
- shrunken log2 fold change: -0.232

Sequence: RRIRKRPPRLPRPRPRPNSGPRP
- shrunken log2 fold change: 0.0179

Sequence: RRIRCRPPRLPRPRPRPMCFPRP
- shrunken log2 fold change: 0.00335

Sequence: RRIRLRPPRLPRPRPRPMHLPRP
- shrunken log2 fold change: -0.0248

Sequence: RRIRIRPPRLPRPRPRPTRWPRP
- shrunken log2 fold change: 0.242

Sequence: RRIRPRPPRLPRPRPRPTWIPRP
- shrunken log2 fold change: 0.184

Sequence: RRIRDRPPRLPRPRPRPSDGPRP
- shrunken log2 fold change: 0.166

Sequence: RRIRIRPPRLPRPRPRPWAHPRP
- shrunken log2 fold change: -0.923

Sequence: RRIRERPPRLPRPRPRPWNSPRP
- shrunken log2 fold change: 0.0019

Sequence: RRIRDRPPRLPRPRPRPWLFPRP
- shrunken log2 fold change: 0.0977

Sequence: RRIRCRPPRLPRPRPRPFFPPRP
- shrunken log2 fold change: -0.167

Sequence: RRIRGRPPRLPRPRPRPIGSPRP
- shrunken log2 fold change: 0.45

Sequence: RRIRHRPPRLPRPRPRPKCNPRP
- shrunken log2 fold change: -0.00178

Sequence: RRIRVRPPRLPRPRPRPFLEPRP
- shrunken log2 fold change: 0.0733

Sequence: RRIRARPPRLPRPRPRPTVVPRP
- shrunken log2 fold change: 0.238

Sequence: RRIRNRPPRLPRPRPRPISYPRP
- shrunken log2 fold change: -0.029

Sequence: RRIRWRPPRLPRPRPRPSKFPRP
- shrunken log2 fold change: -0.0435

Sequence: RRIRERPPRLPRPRPRPECMPRP
- shrunken log2 fold change: -0.0491

Sequence: RRIRQRPPRLPRPRPRPCVYPRP
- shrunken log2 fold change: 4.4

Sequence: RRIRNRPPRLPRPRPRPVGAPRP
- shrunken log2 fold change: 0.0749

Sequence: RRIRCRPPRLPRPRPRPADDPRP
- shrunken log2 fold change: 0.116

Sequence: RRIRIRPPRLPRPRPRPMADPRP
- shrunken log2 fold change: -0.0382

Sequence: RRIRQRPPRLPRPRPRPRVTPRP
- shrunken log2 fold change: 0.238

Sequence: RRIRKRPPRLPRPRPRPALHPRP
- shrunken log2 fold change: 0.374

Sequence: RRIRRRPPRLPRPRPRPTTPPRP
- shrunken log2 fold change: 0.463

Sequence: RRIRWRPPRLPRPRPRPYKYPRP
- shrunken log2 fold change: -0.977

Sequence: RRIRPRPPRLPRPRPRPKWLPRP
- shrunken log2 fold change: 0.198

Sequence: RRIRGRPPRLPRPRPRPRQPPRP
- shrunken log2 fold change: 0.283

Sequence: RRIRNRPPRLPRPRPRPYEMPRP
- shrunken log2 fold change: -0.0417

Sequence: RRIRFRPPRLPRPRPRPKFWPRP
- shrunken log2 fold change: 0.265

Sequence: RRIRNRPPRLPRPRPRPVRLPRP
- shrunken log2 fold change: 0.0814

Sequence: RRIRGRPPRLPRPRPRPCHPPRP
- shrunken log2 fold change: -0.119

Sequence: RRIRARPPRLPRPRPRPVYRPRP
- shrunken log2 fold change: 0.144

Sequence: RRIRLRPPRLPRPRPRPMFFPRP
- shrunken log2 fold change: -0.381

Sequence: RRIRHRPPRLPRPRPRPKARPRP
- shrunken log2 fold change: -0.00317

Sequence: RRIRVRPPRLPRPRPRPIDQPRP
- shrunken log2 fold change: 0.216

Sequence: RRIRIRPPRLPRPRPRPYQLPRP
- shrunken log2 fold change: -0.699

Sequence: RRIRGRPPRLPRPRPRPWATPRP
- shrunken log2 fold change: 0.959

Sequence: RRIRPRPPRLPRPRPRPEDRPRP
- shrunken log2 fold change: 0.0448

Sequence: RRIRMRPPRLPRPRPRPFGGPRP
- shrunken log2 fold change: 0.222

Sequence: RRIRPRPPRLPRPRPRPAKQPRP
- shrunken log2 fold change: 0.0651

Sequence: RRIRERPPRLPRPRPRPVAVPRP
- shrunken log2 fold change: -0.0937

Sequence: RRIRVRPPRLPRPRPRPWRDPRP
- shrunken log2 fold change: 0.202

Sequence: RRIRVRPPRLPRPRPRPNAKPRP
- shrunken log2 fold change: 0.328

Sequence: RRIRDRPPRLPRPRPRPASLPRP
- shrunken log2 fold change: 0.416

Sequence: RRIRHRPPRLPRPRPRPYNPPRP
- shrunken log2 fold change: -1.07

Sequence: RRIRGRPPRLPRPRPRPKWQPRP
- shrunken log2 fold change: 0.194

Sequence: RRIRERPPRLPRPRPRPLMMPRP
- shrunken log2 fold change: -0.263

Sequence: RRIRLRPPRLPRPRPRPHPVPRP
- shrunken log2 fold change: 0.0604

Sequence: RRIRLRPPRLPRPRPRPPDPPRP
- shrunken log2 fold change: 0.584

Sequence: RRIRRRPPRLPRPRPRPGHVPRP
- shrunken log2 fold change: -0.00681

Sequence: RRIRARPPRLPRPRPRPLHFPRP
- shrunken log2 fold change: 0.211

Sequence: RRIRSRPPRLPRPRPRPEQDPRP
- shrunken log2 fold change: 0.206

Sequence: RRIRHRPPRLPRPRPRPSNFPRP
- shrunken log2 fold change: -0.108

Sequence: RRIRMRPPRLPRPRPRPCPSPRP
- shrunken log2 fold change: 0.0607

Sequence: RRIRNRPPRLPRPRPRPIIDPRP
- shrunken log2 fold change: -0.361

Sequence: RRIRGRPPRLPRPRPRPNQYPRP
- shrunken log2 fold change: -0.166

Sequence: RRIRFRPPRLPRPRPRPCRNPRP
- shrunken log2 fold change: -0.0376

Sequence: RRIRFRPPRLPRPRPRPDWMPRP
- shrunken log2 fold change: -0.0628

Sequence: RRIRHRPPRLPRPRPRPEVIPRP
- shrunken log2 fold change: 0.0357

Sequence: RRIRKRPPRLPRPRPRPDVVPRP
- shrunken log2 fold change: -0.0061

Sequence: RRIRIRPPRLPRPRPRPPFDPRP
- shrunken log2 fold change: -0.0876

Sequence: RRIRRRPPRLPRPRPRPTNAPRP
- shrunken log2 fold change: 0.158

Sequence: RRIRYRPPRLPRPRPRPEFEPRP
- shrunken log2 fold change: -0.00195

Sequence: RRIRERPPRLPRPRPRPRPIPRP
- shrunken log2 fold change: 0.345

Sequence: RRIRRRPPRLPRPRPRPTHCPRP
- shrunken log2 fold change: 0.562

Sequence: RRIRGRPPRLPRPRPRPPMYPRP
- shrunken log2 fold change: 0.145

Sequence: RRIRQRPPRLPRPRPRPLNRPRP
- shrunken log2 fold change: -0.191

Sequence: RRIRQRPPRLPRPRPRPTGGPRP
- shrunken log2 fold change: 0.0146

Sequence: RRIRDRPPRLPRPRPRPCLPPRP
- shrunken log2 fold change: -0.272

Sequence: RRIRKRPPRLPRPRPRPDDQPRP
- shrunken log2 fold change: -0.018

Sequence: RRIRSRPPRLPRPRPRPGNFPRP
- shrunken log2 fold change: 0.00825
